This note sets out measurements from US20220298257A1 (ELPIS BIOPHARMACEUTICALS, published 2022).

Numbering of substitutions follows the chain as printed.

The chains are these.
T1: full-length human CD22 fused with flag and Myc tags at the C-terminus, on HEK293 or K562 cells (human, UniProt P20273 20-847)
T1 construct: whole, on cells; also called CD22/K562; CD22/HEK293; not shown: C-terminal flag and Myc tags of the pCMV6-Entry vector
T1 sequence (looked up): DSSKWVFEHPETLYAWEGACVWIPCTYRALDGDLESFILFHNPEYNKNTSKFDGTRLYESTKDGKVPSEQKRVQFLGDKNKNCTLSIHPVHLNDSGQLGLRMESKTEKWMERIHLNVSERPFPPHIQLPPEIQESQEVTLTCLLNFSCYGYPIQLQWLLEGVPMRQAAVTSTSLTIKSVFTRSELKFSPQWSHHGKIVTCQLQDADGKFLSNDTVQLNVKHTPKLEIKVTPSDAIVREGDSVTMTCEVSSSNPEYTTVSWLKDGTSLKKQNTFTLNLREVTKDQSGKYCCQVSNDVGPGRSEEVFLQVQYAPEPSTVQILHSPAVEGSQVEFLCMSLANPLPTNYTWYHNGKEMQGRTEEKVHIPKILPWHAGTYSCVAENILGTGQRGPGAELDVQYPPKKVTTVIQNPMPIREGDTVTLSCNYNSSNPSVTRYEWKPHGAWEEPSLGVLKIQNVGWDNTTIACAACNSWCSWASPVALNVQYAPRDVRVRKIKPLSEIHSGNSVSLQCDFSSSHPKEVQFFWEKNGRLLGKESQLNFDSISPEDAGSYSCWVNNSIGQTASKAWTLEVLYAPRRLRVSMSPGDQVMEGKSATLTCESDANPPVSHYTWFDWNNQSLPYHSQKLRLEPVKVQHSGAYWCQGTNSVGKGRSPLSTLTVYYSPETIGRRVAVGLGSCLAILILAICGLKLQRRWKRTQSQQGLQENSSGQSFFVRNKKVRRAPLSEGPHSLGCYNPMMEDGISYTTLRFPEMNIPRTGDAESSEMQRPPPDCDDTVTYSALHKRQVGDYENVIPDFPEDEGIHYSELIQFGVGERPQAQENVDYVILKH

T2: human CD22-Fc fusion protein (human, UniProt P20273 20-687, limits assumed)
T2 construct: also called recombinant CD22-Fc fusion protein; not shown: Fc part
T2 sequence (looked up): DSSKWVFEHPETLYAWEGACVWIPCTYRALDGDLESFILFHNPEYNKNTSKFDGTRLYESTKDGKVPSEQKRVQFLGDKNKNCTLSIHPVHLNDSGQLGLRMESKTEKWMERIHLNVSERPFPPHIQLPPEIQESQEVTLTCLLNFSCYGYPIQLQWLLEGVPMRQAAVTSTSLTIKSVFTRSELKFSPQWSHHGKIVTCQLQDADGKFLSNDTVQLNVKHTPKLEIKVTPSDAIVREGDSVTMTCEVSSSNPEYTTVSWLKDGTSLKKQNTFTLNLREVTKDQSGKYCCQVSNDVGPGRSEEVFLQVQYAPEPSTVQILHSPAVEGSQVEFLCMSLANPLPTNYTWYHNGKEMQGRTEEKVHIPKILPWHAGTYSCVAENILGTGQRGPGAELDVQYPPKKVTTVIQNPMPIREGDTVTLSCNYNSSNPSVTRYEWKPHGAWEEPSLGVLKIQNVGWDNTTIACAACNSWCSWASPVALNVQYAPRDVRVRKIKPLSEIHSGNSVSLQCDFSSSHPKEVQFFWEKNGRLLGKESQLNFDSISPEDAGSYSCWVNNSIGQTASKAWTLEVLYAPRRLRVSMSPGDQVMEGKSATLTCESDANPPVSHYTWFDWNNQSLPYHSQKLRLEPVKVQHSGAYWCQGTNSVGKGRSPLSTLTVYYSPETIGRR

B1: EP35-E6 scFv (scFv)
scFv: QVQLVESGGALVQPGGSLRLSCVVSGFPFSTAWMNWVRQAPGKGLEWVARIKSEAHGGTTHYAPPVQGRFTISRDDSKNTVSLQMNSLKTEDTGVYYCGDFQWGQGTLVTVSSGGGGSGGGGSGGGGSVIWMTQSPSSLSASVGDRITITCQASQDISNFLNWYQQKPGEAPKLLLYDASNLERGVPSRFSGGGSGTDFTLTISSLQPEDIATYFCQQYDNLPLTFGGGTKVEIK
notes: VH-VL orientation; not shown: C-terminal flag and 6xHIS tag
B2: EP160-G05 scFv (scFv)
scFv: EVQLVQSGAEVKKPGASVKVSCKASGYTFTSYGISWVRQAPGQGLEWMGWISAYNGNTNYAQKLQGRVTMTTDTSTSTAYMELRSLRSDDTAVYYCARDPSMDVWGQGTTVTVSSGGGGSGGGGSGGGGSEIVLTQSPATLSVSPGERATLSCRASQSVSSNLAWYQQKPGQAPRLLIYGASTRATGIPARFSGSGSGTEFTLTISSLQSEDFAVYYCQQYNSWPPITFGQGTRLEIK
notes: as for B1
B3: EP160-E03 scFv (scFv)
scFv: EVQLVQSGGGVVQPGKSLRLSCAASGFTFSSYGMHWVRQAPGKGLEWVAVIWYDGSNKYYADSVKGRFTISRDNSKNTLYLQMNSLRAEDTAVYYCARDGWTGFDYWGQGTTVTVSSGGGGSGGGGSGGGGSEIVLTQSPATLSVSPGEGVTLSCRASQSVSSNLAWYQQRPGQAPRLLIYGASIKATDVPDRFSGGGSGTDFTLSISNLQSEDFAVYYCQQYHTWPPVTFGGGTKVEIK
notes: as for B1
B4: EP35-C6 scFv (scFv)
scFv: QVQLVESGGGVVQPGGSLRLSCAASGFPFSRFGIHWVRQAPGKGLDWVAFIRTDGGSQHYADSVKGRFTISRDNSENMVYLQMNSLRVDDTALYYCAKDPPRVTGNTGYDYDWGQGVQVTVSSGGGGSGGGGSGGGGSDIVMTQSPDSLAVSLGERATINCKSSQSVLYSANNKNCLAWYQQKSGQPPKLLIYWASTRESGVPGRFSGSGSGTDFTLTISSLQAEDVAVYYCQQYYSPPRTFGQGTKLEIK
notes: VH-VL orientation; also called EP35-C06; not shown: C-terminal flag and 6xHIS tag
B5: EP35-D6 scFv (scFv)
scFv: QVQLVQSGTEVKKPGASVKVSCKASGYTFTNNAITWVRQAPGQGLEWMGYISTSSDNINYAQKFRGRLTLTTDTSTGTAYMELSSLRSDDTATYYCARDGIFGGRDDPWGQGTLVTVSSGGGGSGGGGSGGGGSDIVMTQSPSSLSASVGDRVTITCQASQDISNYLNWYQQKPGKAPKLLIYDASNLETGVPSRFSGSGSETDFTITISSLQPEDIATYYCQQYDNLPLTFGGGTKVR
notes: as for B1
B6: EP97-G05 scFv (scFv)
scFv: EVQLVQSGAEVKKPGASVKVSCKASGYTFTSYGISWVRQAPGQGLEWMGWISAYNGNTNYAQKLQGRVTMTTDTSTSTAYMELRSLRSDDTAVYYCARDYGDPSGDDYWGQGTLVTVSSGGGGSGGGGSGGGGSEIVLTQSPATLSVSPGEGVTLSCRASQSVSSNLAWYQQRPGQAPRLLIYGASIKATDVPDRFSGGGSGTDFTLSISNLQSEDFAVYYCQQYHTWPPVTFGGGTKVEIK
notes: VH-VL orientation; also called EP097-G05; not shown: C-terminal flag and 6xHIS tag
B7: EP160-H02 scFv (scFv)
scFv: QVQLVQSGAEVKKPGASVKVSCKASGYTFTSYGISWVRQAPGQGLEWMGGIIAYNGNTNYAQKLQGRVTMTTDTSTSTAYMELRSLRSDDTAVYYCARDPPEYSSSAGTDYWGQGTLVTVSSGGGGSGGGGSGGGGSEIVMTQSPATLSVSPGEGVTLSCRASQSVSSNLAWYQQRPGQAPRLLIYGASIKATDVPDRFSGGGSGTDFTLSITNLQSEDFAVYYCQQYHTWSPVTFGGGTKVEIK
notes: as for B1
B8: EP35-A7 scFv (scFv)
scFv: EVQLVESRGGVVQPGGSLRLSCAASGFTFSSYGMHWVRQAPGKGLEWVAFIRYDGSNKYYADSVKGRFTISRDNSKNTLYLQMNSLRAEDTAVYYCAKETVTTNYYYYMDVWGKGTTVTVSSGGGGSGGGGSGGGGSDVVMTQSPLSLPVTLGQPASISCRSSRSLEYNDGNTYLNWFHQRPGQSPRRLIYKVSNRDSGVPDRFSGSGSDTDFTLKISRVEAEDVGIYYCMQGTHWPLTFGQGTRLEIK
notes: as for B1
B9: EP35-B05 scFv (scFv)
scFv: QVQLVQSGAEVKKPGASVKVSCKASGYTFTSYGISWVRQAPGQGLEWMGWISAYNGNTNYAQKLQGRVTMTTDTSTSTAYMELRSLRSDDTAVYYCARDSGNSPIDYWGQGTLVTVSSGGGGSGGGGSGGGGSEIVMTQSPATLSVSPGEGVTLSCRASQSVSSNLAWYQQRPGQAPRLLIYGASIKATDVPDRFSGGGSGTDFTLSISNLQSEDFAVYYCQQYHTWPPVTFGGGTKVEIK
notes: VH-VL orientation; also called EP35-B5; not shown: C-terminal flag and 6xHIS tag
B10: EP160-C07 scFv (scFv)
scFv: B9 scFv with V2M, S100A, G101V, N102A, S103G, P104S, I105R, D106G, M137L, G234E
notes: VH-VL orientation; also called EP160-007; not shown: C-terminal flag and 6xHIS tag
B11: EP97-F01 scFv (scFv)
scFv: B9 scFv with S100H, G101I, N102A, S103A, P104A, I105G, S209T
notes: as for B1
B12: EP35-C8 scFv (scFv)
scFv: B9 scFv with R87G, N102S, P104D, I105L, R172K, I181M, N210S
notes: VH-VL orientation; also called EP35-C08; not shown: C-terminal flag and 6xHIS tag
B13: EP35-F7 scFv (scFv)
scFv: B3 scFv with K16R, T102K
notes: also called EP35-F07; not shown: C-terminal flag and 6xHIS tag
B14: EP97-A01 scFv (scFv)
scFv: B3 scFv with K16R, R19K, T102K
notes: as for B1

The target in one experiment is T1, full-length human CD22 fused with flag …. The experiment in a line: FACS, scFv titrated on CD22-expressing cells, anti-His Alexa 488.
Protocol: The diluted samples were incubated with CD22-expressing HEK293 cells (CD22/HEK293 cells) in 96 wells plate on ice for 1 hour. Cells were spun down at 1200 rpm for 5 minutes at 4° C. to remove unbound antibodies. Cells were then washed once with 200 μL of full medium per well. […] Samples were then spun down at 1200 rpm for 5 minutes at 4° C. and washed twice with 200 uL of 1×PBS per well. The resultant samples were reconstituted in 200 uL of 1×PBS and read on Guava EasyCyte.
As usually defined, the EC50 is the concentration giving half of the maximal effect. A low value points to a more potent agent. Molecule B1 registered an EC50 of 14.2 nM.
On the same count and under the same terms, then B2, with 2.9 nM.
Same read-out and setting: as for B3, the figure is 6.8 nM; as for B4, 19.3 nM; as for B5, 47 nM.
The molecule B6 came in with an EC50 of 3.3 nM.
Still for that read-out and setting: as for B7, the figure is 0.68 nM; as for B8, 10.4 nM.
Same read-out and setting: then B9, with 77 nM; and B10, with 5.2 nM; and B11, with 10 nM.
As for B12, the EC50 is 4.6 nM.

The next experiment concerns the target T2, human CD22-Fc fusion protein. Description: SPR Biacore T200; CD22-Fc captured on Protein G chip, scFv as analyte.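 Further: run in 1×HBST buffer, with the response of reference flow cell 1 subtracted from the CD22 capture cell and kinetics fitted in Biacore T200 evaluation software.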
Protocol: The assay was run with Biacore T200 control software version 2.0. For each cycle, 1 μg/mL of human CD22-Fc fusion protein was captured for 60 seconds at flow rate of 10 ul/min on flow cell 2 in 1×HBST buffer on Protein G sensor chip. […] The flow cells were then regenerated with Glycine pH 2 for 60 seconds at flow rate of 30 ul/mins. […] The kinetics of scFvs binding to CD22 protein was analyzed with Biacore T200 evaluation software 3000. The specific binding response unit was derived from subtraction of binding to reference flow cell 1 from CD22 captured flow cell 2.
A word on the Kd: it is a measure of binding affinity in units of concentration. A low value points to higher affinity. What is called koff is the first-order rate constant of dissociation. Read a high koff as a short-lived complex. What is called kon is a measure of how fast the partners come together. A high value points to faster complex formation. Molecule B13 gave a Kd of 11.3 nM, a koff of 0.00098 s⁻¹ and a kon of 86900 M⁻¹ s⁻¹.
The like results for B14 were, in that order, 14.2 nM, 0.00101 s⁻¹ and 71300 M⁻¹ s⁻¹.
Taken in the same sequence, the figures for B3 were 5.52 nM, 0.00164 s⁻¹ and 297000 M⁻¹ s⁻¹.
B4 came in with a Kd of 15.8 nM, a koff of 0.000985 s⁻¹ and a kon of 62500 M⁻¹ s⁻¹.
In the case of B6, the Kd stood at 0.166 nM, the koff worked out at 4.19e-05 s⁻¹ and the kon turned out to be 252000 M⁻¹ s⁻¹.
The like results for B7 were, in that order, 1.84 nM, 0.000112 s⁻¹ and 60900 M⁻¹ s⁻¹.
As for B11, binding was characterised by a dissociation constant (Kd) of 0.219 nM, the koff was determined as 0.000195 s⁻¹ and the kon was 888000 M⁻¹ s⁻¹.
